The source of these data is patent US20190309094A1.

pKd: −log10 of the molar value.

Assay [1] has as its target CD3 on Jurkat luciferase reporter cells (Homo sapiens (Human)) (UniProt P07766). Put plainly: flow cytometry on Jurkat_NFAT_Luc2P cells, PE-A; histogram shifted to about 10^4. (In general: In flow cytometry, cells or beads pass a laser one at a time.)
Assay [2] has the same target. Put plainly: flow cytometry on Jurkat_NFAT_Luc2P cells, control staining in all three panels.
The target of assay [3] is hCD3εγ chains (human) (UniProt P07766). As to the kind of experiment: ELISA on hCD3εγ chains, curve fit (unit from the axis). In general terms: In an ELISA, binding on a coated surface is turned into a signal by an enzyme label.
For assay [4] the target is unchanged. Put plainly: ELISA on hCD3εγ chains, curve fit.
Assay [5] addresses CD3 on Jurkat luciferase reporter cells (Homo sapiens (Human)) (UniProt P07766). Put plainly: flow cytometry on Jurkat_NFAT_Luc2P cells, FITC-A; histogram shifted to between 10^3 and 10^4.

Chain of UCHT1 (antibody) (V domain): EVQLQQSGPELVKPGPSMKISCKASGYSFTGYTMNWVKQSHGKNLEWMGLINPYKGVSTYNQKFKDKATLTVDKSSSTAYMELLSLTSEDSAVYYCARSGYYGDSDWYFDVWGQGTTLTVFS
Chain of UCHT1 (antibody) (VL): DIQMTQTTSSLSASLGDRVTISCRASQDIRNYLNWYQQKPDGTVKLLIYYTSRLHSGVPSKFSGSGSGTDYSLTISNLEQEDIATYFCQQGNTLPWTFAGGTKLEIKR

As for Commercial CD3e(HiT3a) (antibody), the Fold (fold over hIgG) in assay [1] came out at 58. For the substance hIgG (antibody), in assay [2], the Fold (fold (reference)) was determined as 1.

For UCHT1 (antibody), in the assay with hCD3εγ chains (human) [3], the pKd was 7.48. In the assay with hCD3εγ chains (human) [4], the Bmax came to 1.52 OD 450 nm. Take mOKT3 (antibody): the Fold (fold over hIgG) in assay [5] is 45.

By pKd is commonly meant the Kd on a negative log10 scale, so that one unit is a factor of ten. The low end stands for a large Kd, the high end for a small Kd.
